Results: paper PMC2696590

Tests used:
SR142948 = assay: competition binding assay against [3H]-NT on intact E. coli cells; conditions: 5 nM agonist [3H]-NT
[^3H]-neurotensin = saturation binding assay on intact E. coli cells
[1] = molecular target: NTS1-7l, MBP and TrxA-H10 fusion (rat) (UniProt P20789); assay: radioligand binding; saturation binding of 1 pM to 10 nM [^3H]-NT to intact E. coli cells expressing the receptor; TEBB buffer, no detergents, 2 hours on ice, GF/B filters; apparent KD, one-site with ligand depletion
Chain of NTS1-7l, MBP and TrxA-H10 fusion (rat) (P20789 43-424): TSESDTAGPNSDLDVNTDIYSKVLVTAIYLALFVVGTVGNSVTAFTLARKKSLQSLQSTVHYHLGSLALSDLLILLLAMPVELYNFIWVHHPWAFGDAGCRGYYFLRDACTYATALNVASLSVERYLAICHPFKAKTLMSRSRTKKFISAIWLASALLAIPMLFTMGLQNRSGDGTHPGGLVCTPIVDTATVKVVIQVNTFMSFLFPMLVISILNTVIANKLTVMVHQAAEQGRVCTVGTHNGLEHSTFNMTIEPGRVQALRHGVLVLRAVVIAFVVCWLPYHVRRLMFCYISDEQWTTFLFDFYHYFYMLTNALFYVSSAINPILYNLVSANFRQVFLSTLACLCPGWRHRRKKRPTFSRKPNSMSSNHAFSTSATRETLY

[2] = molecular target: NTS1-7o, MBP and TrxA-H10 fusion (rat) (UniProt P20789); assay: as above
Chain of NTS1-7o, MBP and TrxA-H10 fusion (rat) (P20789 43-424): as above

Chain of wild-type NTS1 (N-terminally truncated rat neurotensin type I receptor starting at Thr43), MBP and TrxA-H10 fusion (from UniProt P20789) NTS1-7l (P20789 whole entry, looked up, change not shown, the tested form may be a part): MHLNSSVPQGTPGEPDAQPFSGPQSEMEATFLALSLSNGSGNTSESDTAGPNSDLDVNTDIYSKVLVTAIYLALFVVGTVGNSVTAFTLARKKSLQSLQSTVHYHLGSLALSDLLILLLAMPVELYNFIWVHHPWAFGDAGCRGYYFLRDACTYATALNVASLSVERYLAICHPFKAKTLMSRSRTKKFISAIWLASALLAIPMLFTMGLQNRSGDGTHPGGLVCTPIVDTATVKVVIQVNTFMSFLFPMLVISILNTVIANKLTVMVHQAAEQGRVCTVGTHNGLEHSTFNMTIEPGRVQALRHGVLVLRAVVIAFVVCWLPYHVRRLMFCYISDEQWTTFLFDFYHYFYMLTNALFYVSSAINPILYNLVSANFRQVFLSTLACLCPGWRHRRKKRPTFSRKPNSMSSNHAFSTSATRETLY
Chain of wild-type NTS1 (N-terminally truncated rat neurotensin type I receptor starting at Thr43), MBP and TrxA-H10 fusion (from UniProt P20789) NTS1-7o (P20789 whole entry, looked up, change not shown, the tested form may be a part): as above
Chain of wild-type NTS1 (N-terminally truncated rat neurotensin type I receptor starting at Thr43), MBP and TrxA-H10 fusion (from UniProt P20789) NTS1-7f (P20789 whole entry, looked up, change not shown, the tested form may be a part): as above
Chain of wild-type NTS1 (N-terminally truncated rat neurotensin type I receptor starting at Thr43), MBP and TrxA-H10 fusion (from UniProt P20789) NTS1-7g (P20789 whole entry, looked up, change not shown, the tested form may be a part): as above
Chain of wild-type NTS1 (N-terminally truncated rat neurotensin type I receptor starting at Thr43), MBP and TrxA-H10 fusion (from UniProt P20789) NTS1-7e (P20789 whole entry, looked up, change not shown, the tested form may be a part): as above
Chain of wild-type NTS1 (N-terminally truncated rat neurotensin type I receptor starting at Thr43), MBP and TrxA-H10 fusion (from UniProt P20789) A86L; F358A (P20789 whole entry A86L/F358A, looked up, the tested form may be a part): as the sequence (P20789 whole entry, looked up, change not shown, the tested form may be a part) above, with A86L, F358A counted along it
Chain of wild-type NTS1 (N-terminally truncated rat neurotensin type I receptor starting at Thr43), MBP and TrxA-H10 fusion (from UniProt P20789) A86L; I260A; F342A; F358A (P20789 whole entry A86L/I260A/F342A/F358A, looked up, the tested form may be a part): as the sequence (P20789 whole entry, looked up, change not shown, the tested form may be a part) above, with A86L, I260A, F342A, F358A counted along it

| Substance | Ki (SR142948) [nM] | Kd ([^3H]-neurotensin) [nM] | Kd [1] [nM] | Kd [2] [nM] |
| --- | --- | --- | --- | --- |
| wild-type NTS1 (N-terminally truncated rat neurotensin type I receptor starting at Thr43), MBP and TrxA-H10 fusion (from UniProt P20789) NTS1-7o | 0.22 |  |  |  |
| wild-type NTS1 (N-terminally truncated rat neurotensin type I receptor starting at Thr43), MBP and TrxA-H10 fusion (from UniProt P20789) NTS1-7g | 2.8 | 0.21 |  |  |
| wild-type NTS1 (N-terminally truncated rat neurotensin type I receptor starting at Thr43), MBP and TrxA-H10 fusion (from UniProt P20789) NTS1-7l | 0.32 |  |  |  |
| wild-type NTS1 (N-terminally truncated rat neurotensin type I receptor starting at Thr43), MBP and TrxA-H10 fusion (from UniProt P20789) A86L; I260A; F342A; F358A | 1.2 |  |  |  |
| [^3H]-neurotensin (peptide) |  |  | 0.22 | 0.03 |
| wild-type NTS1 (N-terminally truncated rat neurotensin type I receptor starting at Thr43), MBP and TrxA-H10 fusion (from UniProt P20789) NTS1-7e | 0.91 | 0.14 |  |  |
| wild-type NTS1 (N-terminally truncated rat neurotensin type I receptor starting at Thr43), MBP and TrxA-H10 fusion (from UniProt P20789) NTS1-7f | 0.73 | 0.04 |  |  |
| wild-type NTS1 (N-terminally truncated rat neurotensin type I receptor starting at Thr43), MBP and TrxA-H10 fusion (from UniProt P20789) A86L; F358A | 0.58 |  |  |  |
